We go through one substance from paper PMC10123111.

For this data set, the system named is HaloTag-JF635-DDB2 (human). Kind of data set: single-molecule binding (optical tweezers, confocal). The following applies: with eGFP-DDB1; from kon and koff; corrected lifetime 39.0 s; UV-C photoproducts (CPD and 6-4PP), random positions; Nuclear extracts in LUMICKS C-trap flow cell, lambda DNA tethered at about 10 pN; buffer, salt, pH and temperature not given in the material.

With UV-damaged lambda DNA (40 J/m2), the Kd worked out at 0.4 nM.
